Results on two molecules are retold here after US6962972B2, “Derivatization of proteins” (Lipoxen Technologies Limited, priority 2000, dated 2005).

A short description of data set [1]: Catalase determination (enzyme activity: time for hydrogen peroxide absorbance to drop from 0.450 to 0.400). In kind it is biochemical. The conditions noted are these: for Time for Δ Ab: absorbance drop 0.45 to 0.40. From the text:
(§1) Catalase is a tetrameric haemprotein that catalyses the degradation of hydrogen peroxide to oxygen and water. The reaction can be used to determine enzyme activity. The reaction is a first order reaction, whereby the amount of peroxide substrate decomposed is directly proportional to the concentration of both substrate and enzyme. Provided the concentration of substrate is constant between experiments, any difference in decomposition rate will therefore be a function of enzyme activity present. In the present examples, the drop in absorbance hydrogen peroxide at […] from 0.450 to 0.400, corresponding to the decomposition of 3.45 μ moles of hydrogen peroxide in a cuvette having a reaction volume of 3 ml, is determined.
The derivatised catalase compounds were also tested against native catalase for their enzyme activity. The results for catalase alone in FIG. 3 show the effect of subjecting catalase to the reaction conditions but without the addition of activated colominic acid. […] The […] is greater when the polysialylation takes place in the presence of SDS.
The derivatised catalase products were assessed for their catalase activity using the general test described above. The times taken for the enzymes to reduce the absorbance from 0.45 to 0.40 are shown in table 1 as compared to native catalase.

Data set [2] can be described thus: Hanes Woolf plot at different concentrations of hydrogen peroxide (Km). In kind it is biochemical. Particulars: substrate hydrogen peroxide, read-out: Km (substrate concentration at which the reaction rate is half of its maximal value).
Description: as §1
Native catalase, catalase derivitised using 1×10^−3M SDS, for a reaction period of 48 hours, and catalase derivatised using the same reaction time but in the absence of SDS, were compared at different concentrations of hydrogen peroxide to form Hanes Woolf plot.

B1: native catalase: tetrameric haemprotein enzyme from Sigma, used as model protein, underivatised (protein, UniProt P00432 2-527, looked up)
Catalase: ADNRDPASDQMKHWKEQRAAQKPDVLTTGGGNPVGDKLNSLTVGPRGPLLVQDVVFTDEMAHFDRERIPERVVHAKGAGAFGYFEVTHDITRYSKAKVFEHIGKRTPIAVRFSTVAGESGSADTVRDPRGFAVKFYTEDGNWDLVGNNTPIFFIRDALLFPSFIHSQKRNPQTHLKDPDMVWDFWSLRPESLHQVSFLFSDRGIPDGHRHMNGYGSHTFKLVNANGEAVYCKFHYKTDQGIKNLSVEDAARLAHEDPDYGLRDLFNAIATGNYPSWTLYIQVMTFSEAEIFPFNPFDLTKVWPHGDYPLIPVGKLVLNRNPVNYFAEVEQLAFDPSNMPPGIEPSPDKMLQGRLFAYPDTHRHRLGPNYLQIPVNCPYRARVANYQRDGPMCMMDNQGGAPNYYPNSFSAPEHQPSALEHRTHFSGDVQRFNSANDDNVTQVRTFYLKVLNEEQRKRLCENIAGHLKDAQLFIQKKAVKNFSDVHPEYGSRIQALLDKYNEEKPKNAVHTYVQHGSHLSAREKANL
As for B1, the “Time for Δ Ab” value in data set [1] (Concentration SDS 0 %) came out at 4 min. Further, the “enzyme activity (FIG. 3)” value in data set [1] (after the derivatisation reaction conditions, up to 48 hours at 35 to 40° C.) is on record as “catalase activity is lost under those conditions”. In addition, the Km in data set [2] was determined as 84 mM.

B2: derivatised catalase: catalase derivatised with activated colominic acid for 48 hours in the presence of SDS at 0.01, 0.02 or 0.029 % by weight (conjugate, UniProt P00432 2-527, looked up)
Catalase: B1 Catalase
modifications: colominic acid conjugate
Turning to B2, the “Time for Δ Ab” value amounted to 13 min in data set [1] (SDS 0.01 % in derivatisation, 48 hours); 21 min in data set [1] (SDS 0.02 % in derivatisation, 48 hours); 44 min in data set [1] (SDS 0.029 % (1×10^−3M) in derivatisation, 48 hours).
